In publication PMC5509089:

Key:
[1] = target: disulfide-locked α2A domain, “closed” conformation (C150A, C270A, K168C, A325C) (human) (UniProt P17301); assay: ELISA; His-tagged α2A domain (wt or mutant) coated on microtiter wells at 10 μg/ml in TBS/Mg pH 7.4; titrated with RCαβγδ or RCγδ without and with NPS-modified tryptophans in 1% BSA/TBS, 2 mM MgCl2, 1.5 h; bound RC fixed with glutaraldehyde and detected with rabbit RC antiserum, OD 405 nm; Kd by nonlinear regression
[2] = target: His6-tagged integrin α2A domain, wild type (human) (UniProt P17301); assay: as above
[3] = target: α2A-L2^α1 mutant (loop 2 of α2A replaced by the loop 2 sequence of the integrin α1 A-domain) (human) (UniProt P17301); assay: ELISA; α2A wt or mutants (10 μg/ml) captured on immobilised mAb JA218 (2.5 μg/ml), TBS/Mg; titrated with RC; bound RC fixed and detected with rabbit RC antiserum; Kd by nonlinear regression
[4] = target: α2A domain Y216G mutant (human) (UniProt P17301); assay: as above
[5] = target: α2A domain S214G mutant (human) (UniProt P17301); assay: as above
[6] = target: α2A domain D219A mutant (human) (UniProt P17301); assay: as above
[7] = target: His6-tagged integrin α2A domain, wild type (human) (UniProt P17301); assay: as above
[8] = target: T1, rhodocetin heterotetramer (RCαβγδ); assay: ELISA; conditions: chain shown with the change; for percent of parent (% of wild type α2A): read at the highest rhodocetin concentration (about 70 nM), α2A captured by immobilized antibody JA218
T1 chain 1: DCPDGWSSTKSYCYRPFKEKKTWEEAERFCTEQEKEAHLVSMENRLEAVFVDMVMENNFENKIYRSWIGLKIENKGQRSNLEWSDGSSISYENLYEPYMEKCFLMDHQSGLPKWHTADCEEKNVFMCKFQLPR
T1 chain 2: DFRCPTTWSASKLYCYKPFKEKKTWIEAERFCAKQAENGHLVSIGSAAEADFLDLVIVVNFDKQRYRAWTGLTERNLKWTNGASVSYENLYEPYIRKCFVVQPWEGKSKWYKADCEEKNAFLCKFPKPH
T1 chain 3: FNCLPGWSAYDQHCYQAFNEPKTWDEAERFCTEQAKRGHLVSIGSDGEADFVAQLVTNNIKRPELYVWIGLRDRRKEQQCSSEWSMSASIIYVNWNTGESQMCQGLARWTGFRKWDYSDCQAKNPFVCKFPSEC
T1 chain 4: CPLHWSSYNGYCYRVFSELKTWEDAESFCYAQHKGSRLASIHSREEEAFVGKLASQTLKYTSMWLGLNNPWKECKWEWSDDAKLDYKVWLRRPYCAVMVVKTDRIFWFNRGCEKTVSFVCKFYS

Chain of UniProt P17301 (P17301 142-337 Y216G): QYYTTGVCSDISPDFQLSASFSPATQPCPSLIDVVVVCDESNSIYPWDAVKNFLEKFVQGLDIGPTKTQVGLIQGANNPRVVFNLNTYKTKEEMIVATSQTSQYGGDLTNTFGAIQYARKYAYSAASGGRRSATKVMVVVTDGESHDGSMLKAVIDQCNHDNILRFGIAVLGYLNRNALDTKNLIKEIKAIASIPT

rhodocetin heterotetramer (RCαβγδ) (complex)
Kd [1]: 0.21 nM | Kd [2]: 0.29 nM | Kd [3]: 2.7 nM | Kd [4]: 1.98 nM | Kd [5]: 0.77 nM | Kd [6]: 5.2 nM | Kd [7]: 0.76 nM

B1: His6-tagged integrin α2A domain, wild type, P17301 C150A; C270A; K168C; E318C (protein)
chain: SLIDVVVVADESNSIYPWDAVKNFLECFVQGLDIGPTKTQVGLIQYANNPRVVFNLNTYKTKEEMIVATSQTSQYGGDLTNTFGAIQYARKYAYSAASGGRRSATKVMVVVTDGESHDGSMLKAVIDQANHDNILRFGIAVLGYLNRNALDTKNLIKEIKAIASIPTERYFFNVSDCAALLEKAGTLGEQIFSIEG
response ([8]; read at the highest RCαβγδ concentration (about 23 nM), α2A immobilized at 10 μg/ml, parent: est. 2.6, read off a plot): 0.38 OD405nm | Kd ([8]; α2A immobilized to microtiter plates at 10 μg/ml, titrated with RCαβγδ, OD405): 2.64 nM

B2: His6-tagged integrin α2A domain, wild type, P17301 G218L (protein)
chain: SLIDVVVVCDESNSIYPWDAVKNFLEKFVQGLDIGPTKTQVGLIQYANNPRVVFNLNTYKTKEEMIVATSQTSQYGLDLTNTFGAIQYARKYAYSAASGGRRSATKVMVVVTDGESHDGSMLKAVIDQCNHDNILRFGIAVLGYLNRNALDTKNLIKEIKAIASIPTERYFFNVSDEAALLEKAGTLGEQIFSIEG
percent of parent (% of wild type α2A) ([8]; read off a plot): 12

B3: His6-tagged integrin α2A domain, wild type, P17301 G217K (protein)
chain: SLIDVVVVCDESNSIYPWDAVKNFLEKFVQGLDIGPTKTQVGLIQYANNPRVVFNLNTYKTKEEMIVATSQTSQYKGDLTNTFGAIQYARKYAYSAASGGRRSATKVMVVVTDGESHDGSMLKAVIDQCNHDNILRFGIAVLGYLNRNALDTKNLIKEIKAIASIPTERYFFNVSDEAALLEKAGTLGEQIFSIEG
percent of parent (% of wild type α2A) ([8]; read off a plot): 11
